Measurements as given in paper PMC7736860.

Tests used:
Assay in all cases: EMSA
Conditions in all cases: Chemiluminescent EMSA kit (Beyotime); buffer, salt, pH and temperature not stated
[1] = molecular target: T1, BTF3 (Arabidopsis thaliana) (UniProt Q9SMW7)
T1 sequence: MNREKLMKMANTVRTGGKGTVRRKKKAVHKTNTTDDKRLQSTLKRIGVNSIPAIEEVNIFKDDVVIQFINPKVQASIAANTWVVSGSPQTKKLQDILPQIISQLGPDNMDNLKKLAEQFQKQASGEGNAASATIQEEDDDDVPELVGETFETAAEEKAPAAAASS

[2] = molecular target: T2, bHLH106 (Arabidopsis thaliana) (UniProt O80674)
T2 sequence: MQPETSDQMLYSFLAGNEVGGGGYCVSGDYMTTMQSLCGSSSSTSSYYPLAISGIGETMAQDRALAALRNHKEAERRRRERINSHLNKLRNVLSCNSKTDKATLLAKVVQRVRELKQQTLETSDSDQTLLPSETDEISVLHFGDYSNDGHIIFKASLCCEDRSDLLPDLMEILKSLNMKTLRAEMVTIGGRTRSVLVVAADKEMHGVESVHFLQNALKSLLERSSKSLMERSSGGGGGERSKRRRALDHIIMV

[3] = molecular target: T3, HAT1 (Arabidopsis thaliana) (UniProt P46600)
T3 sequence: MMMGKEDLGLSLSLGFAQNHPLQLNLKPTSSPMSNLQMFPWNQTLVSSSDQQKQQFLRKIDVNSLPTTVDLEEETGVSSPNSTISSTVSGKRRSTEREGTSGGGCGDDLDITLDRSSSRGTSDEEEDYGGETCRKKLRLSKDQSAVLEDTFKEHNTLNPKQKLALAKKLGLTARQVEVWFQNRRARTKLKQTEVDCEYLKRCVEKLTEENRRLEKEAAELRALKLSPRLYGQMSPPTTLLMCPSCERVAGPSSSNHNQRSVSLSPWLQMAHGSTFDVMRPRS

[4] = molecular target: T4, bZIP1664 (Arabidopsis thaliana) (UniProt F4I978)
T4 sequence: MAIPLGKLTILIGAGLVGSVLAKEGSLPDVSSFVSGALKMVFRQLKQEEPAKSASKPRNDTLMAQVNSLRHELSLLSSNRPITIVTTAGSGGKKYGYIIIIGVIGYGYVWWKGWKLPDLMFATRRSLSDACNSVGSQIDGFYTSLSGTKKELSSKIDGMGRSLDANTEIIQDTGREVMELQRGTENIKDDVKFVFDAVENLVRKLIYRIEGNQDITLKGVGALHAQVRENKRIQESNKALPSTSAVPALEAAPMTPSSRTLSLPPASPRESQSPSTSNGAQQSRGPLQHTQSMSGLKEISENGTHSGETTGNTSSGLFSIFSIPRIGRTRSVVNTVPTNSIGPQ

[5] = molecular target: T5, TEM1 (TEMPRANILLO1) (Arabidopsis thaliana) (UniProt Q9C6M5)
T5 sequence: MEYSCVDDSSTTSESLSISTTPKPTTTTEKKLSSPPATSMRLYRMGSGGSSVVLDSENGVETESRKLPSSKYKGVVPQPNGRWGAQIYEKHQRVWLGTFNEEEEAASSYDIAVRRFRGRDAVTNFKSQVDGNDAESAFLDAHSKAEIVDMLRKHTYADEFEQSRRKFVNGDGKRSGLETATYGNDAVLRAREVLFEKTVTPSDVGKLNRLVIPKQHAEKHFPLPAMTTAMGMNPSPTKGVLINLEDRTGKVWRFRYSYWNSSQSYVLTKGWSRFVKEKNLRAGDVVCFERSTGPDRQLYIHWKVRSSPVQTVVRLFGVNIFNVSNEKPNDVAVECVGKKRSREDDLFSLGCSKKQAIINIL

Measured: binding

GTGAAACAGCGTGTGTTATGCACAATAATGGATTCCCGAAGTGGAAGGGTACATTTGTCCTTTCGAGATCAATTTCTCGATACAGTAAAAATGGGCCATTGTTGTTTACTTTTCCTTGGTGTTAAAACAATAATGTAGTGCCCCCACTTAGATATTTTTTTGCTAGGTTTTGGCTCCAACCCAAGAAAAATTCGTTCGGTGACTAATAATAATCGCTGACCCCGA (double strand)
binds: [1] | [2] | [3] | [4] | [5]
